For this assay, the target named is T1, hMUC16 peptide biotinylated either at C- or N-terminus (bio-hMUC16) (human, biotin at C- or N-terminus).
T1 construct: Captured on streptavidin-coated plates for panning and ELISA screening; also called human MUC16 peptide; MUC16 immunization peptide
T1 peptide: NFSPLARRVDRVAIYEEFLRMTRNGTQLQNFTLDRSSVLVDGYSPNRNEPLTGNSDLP
The assay can be described thus: ELISA, crude periplasmic extracts on biotinylated hMUC16 peptide captured on streptavidin-coated wells. The protocol: The Core 93GG library was panned on hMUC16 peptide […] (SEQ ID NO:92) biotinylated either at C- or N-terminus (bio-hMUC16) for 4 rounds. The bio-hMUC16 peptide was allowed to interact with streptavidin coated plates after which phages from the library were added to the plate. The enrichment for antigen-specific phages was assessed after each round of panning by comparing the number of phagemid particles eluted from antigen-coated wells with the number of phagemid particles eluted from negative control wells (coated with streptavidin and blocked but containing no peptide). […] No enrichment was observed after the 1st, 3rd and 4th round. In total, 380 colonies (190 from round 3, 190 from round 4) were randomly selected and analyzed by ELISA for the presence of antigen-specific nanobodies in their periplasmic extracts (ELISA using crude periplasmic extracts including soluble nanobodies). The peptides used for ELISA screening were the same as the ones used for panning, using blocked streptavidin-coated wells without peptide as negative control. Out of these 380 colonies, 34 colonies scored positive in this assay. Based on sequence data of the positive colonies, 6 different full length nanobodies were distinguished, belonging to 2 different CDR3 groups (B-cell lineages) (see Excel file). […] Nanobodies belonging to the same CDR3 group recognize the same epitope but their other characteristics (e.g. affinity, potency, stability, expression yield, etc.) can be different. Clones from these pannings bear the following code in their name: MU.

Changes are numbered by the printed parent chain.

B1: Single domain anti-MUC16 R3MU119 (VHH)
VHH: QVQLQESGGGLVQPGDSMRLSCAAEGDSLDGYVVGWFRQAPGKERQGVSSISGDGSMRYVADSVKGRFTISRDNAKNTVYLQMIDLKPEDTGVYYCAADPPTWDYWGQGTQVTVSS
notes: Tested as soluble nanobody in crude periplasmic extract; not shown: C-terminal HA tag and His6 tag of the pMECS GG vector
As for B1, the binding result was “binds”.

B2: Single domain anti-MUC16 R3MU63 (VHH)
VHH: QVQLQESGGGLVQAGDSLRLSCAASGRTVSSLFMGWFRRAPGKERELVAAISRYSLYTYYADSVKGRFTISADNAKNAVYLQMNSLKPEDTAVYYCASKLEYTSNDYDSWGQGTQVTVSS
notes: as for B1
B2: the binding result was “binds”.

B3: single domain anti-MUC16 binder R3MU4 (VHH)
VHH: B2 VHH with D16G, R39Q
notes: as for B1
Regarding B3, the binding result is recorded as “binds”.

B4: Single domain anti-MUC16 R3MU29 (VHH)
VHH: B2 VHH with T28A
notes: as for B1
Take B4: the binding result is “binds”.

B5: Single domain anti-MUC16 R3MU147 (VHH)
VHH: B2 VHH with D16E
notes: as for B1
Consider B5, for which the binding result is given as “binds”.

B6: Single domain anti-MUC16 R3MU150 (VHH)
VHH: B2 VHH with A14P, D16G
notes: as for B1
As for B6, the binding result is reported as “binds”.
